Reference: patent publication US20250339569A1 (3B PHARMACEUTICALS, published 2025)
Starred links: 1 amine or outer side, 2 acyl side, 3 side chain; linkers in the order of their positions; H or OH if unused. Positions of bridges follow the written chain, without caps; N, C: chain ends. Non-standard residues stand in square brackets, D forms with d. Groups on a side chain read outwards from the residue. Primed or numbered codes have the meaning given here. *: point of attachment. Af3(DImAc) = 3-aminophenylalanine acylated on the ring amine with 2-{2,5-dioxo-octahydroimidazo[4,5-d]imidazolidin-1-yl}acetic acid, O=C(CN1C(=O)NC2NC(=O)NC21)Nc1cccc(C[C@H](N[*:1])C(=O)[*:2])c1; APAc″ = 2-(4-(amino)piperidin-1-yl)acetic acid, NC1CCN(CC(=O)*)CC1; DOTA = O=C(O)CN1CCN(CC(=O)O)CCN(CC(=O)*)CCN(CC(=O)O)CC1; Phe(4-CF3) = N[C@@H](Cc1ccc(C(F)(F)F)cc1)C(=O)O; Phe(4-I) = N[C@@H](Cc1ccc(I)cc1)C(=O)O; mXylylene = c1cc(C[*:1])cc(C[*:2])c1; Bta = N[C@@H](Cc1csc2ccccc12)C(=O)O; Cha = N[C@@H](CC1CCCCC1)C(=O)O; Propanoyl(3-OH) = O=C(CCO)*; 4Amb = NCc1ccc(C(=O)O)cc1; 4Amc = not defined here; APAc = not defined here; Ac5c = NC1(C(=O)O)CCCC1; Inp′ = not defined here; Apr = not defined here; Dap = NC[C@H](N)C(=O)O; Ttds″ = Ttds spacer; Sar = CNCC(=O)O

B1: 3BP-3311 (peptide)
peptide: Ac-VYCE[Sar]D[Bta]LTWQC-NH2
modifications: linker 3-12 via mXylylene
SMILES: CC(=O)N[C@H](C(=O)N[C@@H](Cc1ccc(O)cc1)C(=O)N[C@H]1CSCc2cccc(c2)CSC[C@@H](C(N)=O)NC(=O)[C@H](CCC(N)=O)NC(=O)[C@H](Cc2c[nH]c3ccccc23)NC(=O)[C@H]([C@@H](C)O)NC(=O)[C@H](CC(C)C)NC(=O)[C@H](Cc2csc3ccccc23)NC(=O)[C@H](CC(=O)O)NC(=O)CN(C)C(=O)[C@H](CCC(=O)O)NC1=O)C(C)C
B2: 3BP-3313 (peptide)
peptide: Ac-VYCE[Sar]DWLTWAC-NH2
modifications: linker 3-12 via mXylylene
SMILES: CC(=O)N[C@H](C(=O)N[C@@H](Cc1ccc(O)cc1)C(=O)N[C@H]1CSCc2cccc(c2)CSC[C@@H](C(N)=O)NC(=O)[C@H](C)NC(=O)[C@H](Cc2c[nH]c3ccccc23)NC(=O)[C@H]([C@@H](C)O)NC(=O)[C@H](CC(C)C)NC(=O)[C@H](Cc2c[nH]c3ccccc23)NC(=O)[C@H](CC(=O)O)NC(=O)CN(C)C(=O)[C@H](CCC(=O)O)NC1=O)C(C)C
B3: 3BP-3934 (peptide)
peptide: {DOTA}-YCE[dP]KWLEWSC-NH2
modifications: linker 2-11 via mXylylene; lactam 5-8
SMILES: CC(C)C[C@@H]1NC(=O)[C@H](Cc2c[nH]c3ccccc23)NC(=O)[C@@H]2CCCCNC(=O)CC[C@H](NC1=O)C(=O)N[C@@H](Cc1c[nH]c3ccccc13)C(=O)N[C@@H](CO)C(=O)N[C@H](C(N)=O)CSCc1cccc(c1)CSC[C@H](NC(=O)[C@H](Cc1ccc(O)cc1)NC(=O)CN1CCN(CC(=O)O)CCN(CC(=O)O)CCN(CC(=O)O)CC1)C(=O)N[C@@H](CCC(=O)O)C(=O)N1CCC[C@@H]1C(=O)N2
B4: 3BP-4257 (peptide)
peptide: {DOTA}-SDCE[dP]DWLTW[Dap]C-NH2
modifications: lactam 11-2; linker 3-12 via mXylylene
SMILES: CC(C)C[C@@H]1NC(=O)[C@H](Cc2c[nH]c3ccccc23)NC(=O)[C@H](CC(=O)O)NC(=O)[C@H]2CCCN2C(=O)[C@H](CCC(=O)O)NC(=O)[C@@H]2CSCc3cccc(c3)CSC[C@@H](C(N)=O)NC(=O)[C@H](CNC(=O)C[C@H](NC(=O)[C@H](CO)NC(=O)CN3CCN(CC(=O)O)CCN(CC(=O)O)CCN(CC(=O)O)CC3)C(=O)N2)NC(=O)[C@H](Cc2c[nH]c3ccccc23)NC(=O)[C@H]([C@@H](C)O)NC1=O
B5: 3BP-4261 (peptide)
peptide: {DOTA-4Amb}-DCE[dP]DWLTW[Dap]C-NH2
modifications: lactam 10-1; linker 2-11 via mXylylene
SMILES: CC(C)C[C@@H]1NC(=O)[C@H](Cc2c[nH]c3ccccc23)NC(=O)[C@H](CC(=O)O)NC(=O)[C@H]2CCCN2C(=O)[C@H](CCC(=O)O)NC(=O)[C@@H]2CSCc3cccc(c3)CSC[C@@H](C(N)=O)NC(=O)[C@H](CNC(=O)C[C@H](NC(=O)c3ccc(CNC(=O)CN4CCN(CC(=O)O)CCN(CC(=O)O)CCN(CC(=O)O)CC4)cc3)C(=O)N2)NC(=O)[C@H](Cc2c[nH]c3ccccc23)NC(=O)[C@H]([C@@H](C)O)NC1=O
B6: 3BP-3888 (peptide)
peptide: Ac-VYCK[dP]DWLEWSC-NH2
modifications: linker 3-12 via mXylylene; lactam 4-9
SMILES: CC(=O)N[C@H](C(=O)N[C@@H](Cc1ccc(O)cc1)C(=O)N[C@H]1CSCc2cccc(c2)CSC[C@@H](C(N)=O)NC(=O)[C@H](CO)NC(=O)[C@H](Cc2c[nH]c3ccccc23)NC(=O)[C@@H]2CCC(=O)NCCCC[C@H](NC1=O)C(=O)N1CCC[C@@H]1C(=O)N[C@@H](CC(=O)O)C(=O)N[C@@H](Cc1c[nH]c3ccccc13)C(=O)N[C@@H](CC(C)C)C(=O)N2)C(C)C
B7: 3BP-3901 (peptide)
peptide: Ac-VYCE[dP]EWLKWSC-NH2
modifications: linker 3-12 via mXylylene; lactam 6-9
SMILES: CC(=O)N[C@H](C(=O)N[C@@H](Cc1ccc(O)cc1)C(=O)N[C@H]1CSCc2cccc(c2)CSC[C@@H](C(N)=O)NC(=O)[C@H](CO)NC(=O)[C@H](Cc2c[nH]c3ccccc23)NC(=O)[C@@H]2CCCCNC(=O)CC[C@H](NC(=O)[C@H]3CCCN3C(=O)[C@H](CCC(=O)O)NC1=O)C(=O)N[C@@H](Cc1c[nH]c3ccccc13)C(=O)N[C@@H](CC(C)C)C(=O)N2)C(C)C

biological target: T1, Fc-fusion protein of human carbonic anhydrase IX (human, UniProt Q16790 38-414); assay: SPR, captured hCAIX-Fc; pKD category A: >8.0

Binder | pKD [pkd]
{DOTA-Ttds″}-VYCEGDWLTWAC-NH2 (linker 3-12 via mXylylene; not fully specified) [3BP-3272] | > 8
{DOTA-Ttds″}-VYCE[Sar]DWLTWQC-NH2 (linker 3-12 via mXylylene; not fully specified) [3BP-3271] | > 8
B1 | > 8
B2 | > 8
{DOTA-APAc}-VYCE[dP]DW[Ac5c]TWSC-NH2 (linker 3-12 via mXylylene; reading uncertain) [3BP-3587] | > 8
{Propanoyl(3-OH)}-YCE[dP]DWLTWE([Apr-DOTA])C-NH2 (linker 2-11 via mXylylene; reading uncertain) [3BP-3842] | > 8
{DOTA-APAc″}-YCE[dP]DWLTWSC-NH2 (linker 2-11 via mXylylene) [3BP-3867] | > 8
{DOTA}-YCE[dP]DWLTWSC-NH2 (linker 2-11 via mXylylene; also: ['indium complexed by DOTA']) [3BP-3906] | > 8
B3 | > 8
{DOTA-APAc″}-V[Dap]CE[dP]DWLTWDC-NH2 (lactam 2-11; linker 3-12 via mXylylene) [3BP-4176] | > 8
{DOTA-APAc}-VYCE[dP]D[Phe(4-I)]LTWSC-NH2 (linker 3-12 via mXylylene; not fully specified; reading uncertain) [3BP-4134] | > 8
{DOTA-APAc″}-VYCE[dP]D[Phe(4-CF3)]LTWSC-NH2 (linker 3-12 via mXylylene; not fully specified) [3BP-4139] | > 8
{DOTA-APAc″}-VYCE[dP]DW[Cha]TWSC-NH2 (linker 3-12 via mXylylene) [3BP-4143] | > 8
B4 | > 8
{DOTA-APAc″}-DCE[dP]DWLTW[Dap]C-NH2 (lactam 10-1; linker 2-11 via mXylylene) [3BP-4254] | > 8
{DOTA-Inp′}-DCE[dP]DWLTW[Dap]C-NH2 (lactam 10-1; linker 2-11 via mXylylene) [3BP-4256] | > 8
{DOTA-4Amc}-DCE[dP]DWLTW[Dap]C-NH2 (lactam 10-1; linker 2-11 via mXylylene; reading uncertain) [3BP-4258] | > 8
B5 | > 8
{DOTA-Gab}-DCE[dP]DWLTW[Dap]C-NH2 (lactam 1-10; linker 2-11 via mXylylene) [3BP-4263] | > 8
{DOTA-APAc″}-VYCE[dP]D[Af3(DImAc)]LTWSC-NH2 (linker 3-12 via mXylylene) [3BP-4341] | > 8

biological target: T1, Fc-fusion protein of human carbonic …; assay: SPR, captured hCAIX-Fc; t1/2 category C: 2.1-5.0 min
Procedure: Stock solutions of test compounds were prepared by dissolving each compound in DMSO. DMSO stock solution were diluted 1:1000 in Running Buffer without DMSO. […] SPR binding analyses were performed in Single Cycle Kinetic (SCK) mode at 25° C.
For each test compound, SPR raw data in the form of resonance units (RU) were plotted as sensorgrams using the Biacore™ T200 control software. The signal from the blank sensorgram was subtracted from that of the test compound sensorgram (blank corrected). The blank corrected sensorgram was corrected for baseline drift by subtracting the sensorgram of a SCK run without the test compound (running buffer only). […] Raw data and fit results were imported as text files in IDBS. The pKD value (negative decadic logarithm of dissociation constant) was calculated in the IDBS excel template.

Binder | t1/2 (half-life of the complex, SPR) [min]
{DOTA-Ttds″}-VYCEGDWLTWAC-NH2 (linker 3-12 via mXylylene; not fully specified) [3BP-3272] | 2.1 to 5
{DOTA-Ttds″}-VYCE[Sar]DWLTWQC-NH2 (linker 3-12 via mXylylene; not fully specified) [3BP-3271] | 2.1 to 5
B1 | 2.1 to 5
B2 | 2.1 to 5
{DOTA-APAc}-VYCE[dP]DW[Ac5c]TWSC-NH2 (linker 3-12 via mXylylene; reading uncertain) [3BP-3587] | 2.1 to 5
{Propanoyl(3-OH)}-YCE[dP]DWLTWE([Apr-DOTA])C-NH2 (linker 2-11 via mXylylene; reading uncertain) [3BP-3842] | 2.1 to 5
{DOTA-APAc″}-YCE[dP]DWLTWSC-NH2 (linker 2-11 via mXylylene) [3BP-3867] | 2.1 to 5
{DOTA}-YCE[dP]DWLTWSC-NH2 (linker 2-11 via mXylylene; also: ['indium complexed by DOTA']) [3BP-3906] | 2.1 to 5
B3 | 2.1 to 5
{DOTA-APAc″}-V[Dap]CE[dP]DWLTWDC-NH2 (lactam 2-11; linker 3-12 via mXylylene) [3BP-4176] | 2.1 to 5
{DOTA-APAc}-VYCE[dP]D[Phe(4-I)]LTWSC-NH2 (linker 3-12 via mXylylene; not fully specified; reading uncertain) [3BP-4134] | 2.1 to 5
{DOTA-APAc″}-VYCE[dP]D[Phe(4-CF3)]LTWSC-NH2 (linker 3-12 via mXylylene; not fully specified) [3BP-4139] | 2.1 to 5
{DOTA-APAc″}-VYCE[dP]DW[Cha]TWSC-NH2 (linker 3-12 via mXylylene) [3BP-4143] | 2.1 to 5
B4 | 2.1 to 5
{DOTA-APAc″}-DCE[dP]DWLTW[Dap]C-NH2 (lactam 10-1; linker 2-11 via mXylylene) [3BP-4254] | 2.1 to 5
{DOTA-Inp′}-DCE[dP]DWLTW[Dap]C-NH2 (lactam 10-1; linker 2-11 via mXylylene) [3BP-4256] | 2.1 to 5
{DOTA-4Amc}-DCE[dP]DWLTW[Dap]C-NH2 (lactam 10-1; linker 2-11 via mXylylene; reading uncertain) [3BP-4258] | 2.1 to 5
B5 | 2.1 to 5
{DOTA-Gab}-DCE[dP]DWLTW[Dap]C-NH2 (lactam 1-10; linker 2-11 via mXylylene) [3BP-4263] | 2.1 to 5
{DOTA-APAc″}-VYCE[dP]D[Af3(DImAc)]LTWSC-NH2 (linker 3-12 via mXylylene) [3BP-4341] | 2.1 to 5

biological target: human carbonic anhydrase 9 (CAIX) (human, UniProt Q16790 38-459); assay: FACS competition on HT-29 cells, competitor tracer 3BP-2776; category B = pIC50 7.1-8.0
Procedure: CAIX-expressing human HT-29 colorectal cancer cells (DSMZ, RRID: CVCL_0320) were cultured in McCoys's 5A modified medium (Biochrom, #F1015) including 10% fetal calf serum (FCS), 2 mM L-glutamine, 100 U/ml penicillin and 100 μg/mL streptomycin. Cells were detached with Accutase (Biolegend, #423201) and washed in FACS buffer (PBS including 1% FCS). Cells were diluted in FACS buffer to a final concentration of 500.000 cells per ml. 200 μL of the cell suspension were transferred to a u-shaped non-binding 96-well plate (Greiner) and cells were washed in ice-cold FACS buffer.
When biotinylated compounds were used an additional incubation step with 1 μg/mL APC-Streptavidin (Miltenyi; #130-106-791) in 50 μL FACS buffer for 30 minutes on ice was performed.
Cells were washed twice with ice-cold FACS buffer and analyzed in an Attune NxT flow cytometer (Thermo Fisher). Median fluorescence intensities (MFI) of the APC/Cy5-channel were calculated by Attune NxT software.

Binder | pIC50 [pic50]
B6 | 7.1 to 8
B7 | 7.1 to 8
